The values that follow come from patent US20260258149A1 (BIONTECH, published 2026).

The target in test [1] is T1, Bovine Submaxillary Mucin (BSM) (bovine).
T1 construct: Glycoprotein carrier of STn; also called BSM mucin; non-biotinylated BSM
Description: ELISA on BSM-coated wells (3 ug/mL), normalised dose response. How it is done: (§1) In order to evaluate the antibody binding to the target antigen STn, we employed an in vitro assay using a mucin that naturally expresses STn: Bovine Submaxillary Mucin (BSM). The humanized variants (V1, V2 and V3) were incubated using BSM-coated wells and binding was evaluated using ELISA assay.
(§2) An ELISA-assay was performed using Bovine Submaxillary Mucin (BSM). 96 well plates were coated using BSM [3 ug/mL], dissolved in 1×PBS. Absorbance was detected using a microplate reader at 450 nm. Absorbance values were normalized against the background and plotted as a % of the dose response effect versus the antibody dose (log scale) as shown in the graph. The EC50 (in ug/mL) was calculated for each condition.
(In general: An ELISA detects its analyte on a solid surface through an enzyme-linked reagent.)

Test [2] concerns the target T1, Bovine Submaxillary Mucin (BSM). Description: ELISA on BSM, OD against antibody concentration.
The target is the same in test [3]. Kind of test: ELISA on BSM-coated wells. How it is done:
as §1, §2

Where “and” joins values, the source holds several entries; their conditions need not be identical. Equal entries are not always repeated.

B1: humanized anti-STn antibody clone V1 (antibody, V domains shown)
VH: QVQLQESGPGLVKPSQTLSLTCTVIGYSITSGYYWNWIRQPPGKGLEWIGSINYDGSNIYNPSLKSRVTISRDTSKNQFSLKLSSVTAADTAVYYCARGGDYWGQGTTVTVSS
VL: EIVLTQSPATLSLSPGERATLSCSASSSVSYMHWFQQKPGQAPRRWIYDTSKRATGVPARFSGSGSGTDYTLTISSLEPEDFAAYYCQQWSSDPPMLTFGGGTKLEIK
notes: Humanized variant of L2A5; Variable domains were cloned into Absolute Antibody vectors 'of the appropriate species and type' and expressed in HEK 293; also called CBS-V1
One may read the EC50 as the midpoint of the concentration-response curve. One may read the EC50 (read off the curve) as the concentration giving half of the maximal effect. Lower therefore signals higher potency in that assay. On to B1, for which the concentration for a half-maximal effect (EC50) in test [1] is 0.324 µg/mL and 0.457 µg/mL. The “EC50 (read off the curve)” value in test [2] was approximately 0.2 µg/mL.

B2: humanized anti-STn antibody clone V2 (antibody, V domains shown)
VH: QVQLQESGPGLVKPSQTLSLTCSVIGYSITSGYYWNWIRQPPGKGLEWIGSINYDGSNIYNPSLKDRVTISRDTSKNQFSLKLSSVTAADTAVYYCARGGDYWGQGTTVTVSS
VL: DIVLTQSPAILSLSPGERATLSCSASSSVSYMHWFQQKSGQAPKRWIYDTSKLASGVPARFSGSGSGTDYTLTISSLEAEDFAAYYCQQWSSDPPMLTFGGGTKLEIK
notes: Humanized variant of L2A5; also called CBS-V2
As for B2, in test [3], the “fold decrease in EC50 compared to V1 and V3 clones” value came out at 3 fold. The half-maximal effective concentration (EC50) in test [1] was 0.0665 µg/mL and 0.137 µg/mL.

B3: humanized anti-STn antibody clone V3 (antibody, V domains shown)
VH: QVQLQESGPGLVKPSQTLSLTCSVIGYSITSGYYWNWIRQPPGKGLEWIGSINYDGSNIYNPSLKDRVTISRDTSKNQFSLKLSSVTAADTAVYYCARGGDYWGQGTTVTVSS
VL: EIVLTQSPATLSLSPGERATLSCSASSSVSYMHWFQQKPGQAPRRWIYDTSKRATGVPARFSGSGSGTDYTLTISSLEPEDFAAYYCQQWSSDPPMLTFGGGTKLEIK
notes: Humanized variant of L2A5
Turning to B3, the EC50 in test [1] is 0.344 µg/mL and 0.449 µg/mL.
